The values that follow come from patent US20240301086A1 (APTEVO RESEARCH AND DEVELOPMENT, published 2024).

Assay [1] deals with T1, Human PSMA ECD-AFH (TSC033), recombinant dimeric PSMA ECD (human, UniProt Q04609 44-750).
T1 construct: SEC-purified dimer; also called HuPSMA-AFH; Avi-His-Human PSMA ECD
As to the kind of experiment: SPR (Biacore T200), scFv-Fc captured on anti-human IgG, dimeric PSMA ECD as analyte, 1:1 fit. The method, then:
Mouse anti-human IgG (GE, BR-1008-39) at 25 μg/ml in 10 mM sodium acetate pH 5.0 was immobilized at a density of ˜2,000-4,000 response units (RU) onto each flow cell of a CM5 research-grade sensor chip (GE) by standard amine coupling chemistry. Each anti-PSMA protein at approximately 40 nM in dPBS with 0.2% BSA buffer was captured in a flow cell with the immobilized anti-human IgG at a flow rate of […] for up to 30 seconds, leaving one flow cell surface unmodified as the reference. Using a multi-cycle kinetics mode, a buffer blank and […] different concentrations of ECD ranging from 1 nM to 243 nM were sequentially injected through each flow cell at 30 μL/min with association times varying from 300-600 seconds and dissociation times varying from 600-1200 seconds. Regeneration was achieved by injection of 3 M MgCl₂ at a flow rate of 30 μL/min for up to 40 seconds followed by dPBS with 0.2% BSA buffer stabilization for 1 min.
Sensorgrams obtained from kinetic SPR measurements were analyzed using the double subtraction method. The signal from the reference flow cell was subtracted from the analyte binding response obtained from flow cells with captured ligands. The buffer blank response was then subtracted from analyte binding responses and the final double-referenced data were analyzed with Biacore T200 Evaluation software (2.0, GE), globally fitting data to derive kinetic parameters. All sensorgrams were fitted using a simple one-to-one binding model.

For assay [2], the target named is T2, Full-length cynomolgus monkey PSMA (TSC308), on cells (cynomolgus monkey, UniProt Q04609 1-750 (human entry)).
T2 construct: also called cyno PSMA; CHOK1SV/cynoPSMA
T2 chain: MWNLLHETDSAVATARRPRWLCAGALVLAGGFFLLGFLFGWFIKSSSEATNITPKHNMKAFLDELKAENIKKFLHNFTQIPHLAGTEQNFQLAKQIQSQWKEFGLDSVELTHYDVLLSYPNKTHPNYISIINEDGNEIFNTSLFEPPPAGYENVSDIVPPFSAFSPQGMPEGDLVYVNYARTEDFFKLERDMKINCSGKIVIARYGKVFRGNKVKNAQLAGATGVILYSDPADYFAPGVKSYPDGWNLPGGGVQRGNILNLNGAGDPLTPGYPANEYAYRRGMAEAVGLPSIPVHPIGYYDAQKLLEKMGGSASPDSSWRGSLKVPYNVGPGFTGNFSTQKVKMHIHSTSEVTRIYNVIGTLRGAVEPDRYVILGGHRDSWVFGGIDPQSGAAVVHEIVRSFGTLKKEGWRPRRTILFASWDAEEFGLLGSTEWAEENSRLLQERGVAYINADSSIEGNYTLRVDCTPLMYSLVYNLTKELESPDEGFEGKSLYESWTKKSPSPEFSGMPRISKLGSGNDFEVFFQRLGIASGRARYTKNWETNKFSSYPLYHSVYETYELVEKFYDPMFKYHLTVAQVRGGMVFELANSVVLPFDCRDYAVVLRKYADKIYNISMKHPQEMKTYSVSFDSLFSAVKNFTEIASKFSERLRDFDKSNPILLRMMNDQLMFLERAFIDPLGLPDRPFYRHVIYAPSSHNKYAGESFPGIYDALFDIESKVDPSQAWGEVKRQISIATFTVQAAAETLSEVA
As to the kind of experiment: cell binding on CHOK1SV/cynoPSMA transfectants, MSD electrochemiluminescence (ECL), SULFO-TAG goat anti-human IgG. The method, then:
(§1) To measure the relative binding activity of humanized PSMA-binding domain variants, constructs were tested in cell binding assays on CHOK1SV cells transfected with human or cynomolgus PSMA. The generation of CHOK1SV/huPSMA cells was described earlier; CHOK1SV/cynoPSMA cells were generated using the same method. Bivalent PSMA-binding domains variants in scFv-Fc format (constructs PSMA01019, PSMA01020, PSMA01021, PSMA01023, PSMA01024 and PSMA01025) were tested in these assays.
(§2) Binding studies on CHOK1SV transfectants were performed in live cell-based ELISA using electrochemiluminescence (Meso Scale Discovery). CHOK1SV cells were washed and seeded at 50,000 cells/well in 1× Hank's Balanced Salt Solution (HBSS) on 96-well Multi-Array High Bind plates (Meso Scale Discovery) and incubated at 37° C. for one hour. Following a blocking step in PBS buffer with 20% FBS, serial dilutions of PSMA-binding constructs (from 0.002 to 100 nM) were added in PBS buffer with 10% FBS and incubated at room temperature for one hour. Plates were washed with PBS and the specific binding levels were detected by SULFO TAG-labeled goat anti-human IgG antibody (Meso Scale Discovery #R32AJ). Following an hour incubation and wash steps, 150 μL/well surfactant free 1× Read Buffer T were added and samples were analyzed on MSD Sector Imager (Meso Scale Discovery). Resulting electrochemiluminescence (ECL) values versus concentrations were plotted and nonlinear regression analysis to determine EC50 values was performed in GraphPad Prism 7® graphing and statistics software.

Assay [3] addresses T3, Full-length Human PSMA (TSC435), on cells (human, UniProt Q04609 1-750).
T3 construct: also called CHOK1SV/huPSMA; PSMA on C4-2B, 22RV1, LNCaP, MDA-PCa-2b cells
As to the kind of experiment: cell binding on CHOK1SV/humanPSMA transfectants, MSD electrochemiluminescence (ECL), SULFO-TAG goat anti-human IgG. On the procedure: as §1, §2

Residue numbers refer to the chain shown, from its start.

T1 sequence (Q04609 other isoform, or with tags, fused parts or gaps): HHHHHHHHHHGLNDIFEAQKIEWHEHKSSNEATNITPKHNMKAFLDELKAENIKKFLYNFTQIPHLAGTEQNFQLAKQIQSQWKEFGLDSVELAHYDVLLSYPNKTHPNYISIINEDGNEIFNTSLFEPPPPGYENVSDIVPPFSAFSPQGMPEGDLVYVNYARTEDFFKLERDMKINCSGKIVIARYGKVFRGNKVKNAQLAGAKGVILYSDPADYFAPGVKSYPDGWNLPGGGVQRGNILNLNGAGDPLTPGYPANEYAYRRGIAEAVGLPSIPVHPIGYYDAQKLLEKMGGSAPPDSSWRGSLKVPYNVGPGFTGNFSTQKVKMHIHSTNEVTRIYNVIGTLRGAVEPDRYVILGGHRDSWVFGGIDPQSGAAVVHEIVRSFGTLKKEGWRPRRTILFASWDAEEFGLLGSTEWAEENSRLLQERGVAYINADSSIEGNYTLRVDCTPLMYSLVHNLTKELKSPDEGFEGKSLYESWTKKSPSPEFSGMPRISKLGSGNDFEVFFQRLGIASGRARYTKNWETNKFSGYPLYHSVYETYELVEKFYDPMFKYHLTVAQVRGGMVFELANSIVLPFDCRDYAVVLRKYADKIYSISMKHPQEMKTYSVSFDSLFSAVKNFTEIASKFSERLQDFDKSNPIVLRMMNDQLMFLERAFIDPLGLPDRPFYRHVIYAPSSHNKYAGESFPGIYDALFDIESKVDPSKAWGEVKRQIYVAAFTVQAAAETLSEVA

B1: PSMA01019 Anti-PSMA scFv-Fc (Fc fusion)
chain: DVQITQSPSTLSASVGDRVTITCRASKSISKYLAWYQQKPGKAPKLLIHSGSSLESGVPSRFSGSGSGTEFTLTISSLQPDDFATYYCQQHIEYPWTFGQGTKVEIKGGGGSGGGGSGGGGSGGGGSEVQLLESGGGLVQPGGSLRLSCAASGYTFTDYYIHWVRQAPGKGLEWIGSFNPYNDYTSYADSVKGRATLSVDKSKNTAYLQMNSLRAEDTAVYYCARSDGYYDAMDYWGQGTLVTVSSSEPKSSDKTHTCPPCPAPEAAGAPSVFLFPPKPKDTLMISRTPEVTCVVVDVSHEDPEVKFNWYVDGVEVHNAKTKPREEQYNSTYRVVSVLTVLHQDWLNGKEYKCAVSNKALPAPIEKTISKAKGQPREPQVYTLPPSRDELTKNQVSLTCLVKGFYPSDIAVEWESNGQPENNYKTTPPVLDSDGSFFLYSKLTVDKSRWQQGNVFSCSVMHEALHNHYTQKSLSLSPGK
notes: Monospecific, bivalent scFv-Fc, VL-VH
As to B1, in assay [1], the Kd turned out to be 15 nM, the koff came out at 0.00019 s⁻¹ and the kon stood at 13000 M⁻¹ s⁻¹. In addition, it took 8 nM to reach a half-maximal effect in assay [2] (EC50). This molecule gave a half-maximal effective concentration (EC50) in assay [3] of 4 nM.

B2: PSMA01023 Anti PSMA scFv-Fc (Fc fusion)
chain: DIQMTQSPSTLSASVGDRVTITCRASKSISKYLAWYQQKPGKAPKLLIHSGSSLESGVPSRFSGSGSGTEFTLTISSLQPDDFATYYCQQHIEYPWTFGQGTKVEIKGGGGSGGGGSGGGGSGGGGSQVQLVQSGAEVKKPGASVKVSCKASGYTFTDYYMHWVRQAPGQGLEWMGYFNPYNDYTRYAQKFQGRVTMTRDTSTSTVYMELSSLRSEDTAVYYCARSDGYYDAMDYWGQGTTVTVSSSEPKSSDKTHTCPPCPAPEAAGAPSVFLFPPKPKDTLMISRTPEVTCVVVDVSHEDPEVKFNWYVDGVEVHNAKTKPREEQYNSTYRVVSVLTVLHQDWLNGKEYKCAVSNKALPAPIEKTISKAKGQPREPQVYTLPPSRDELTKNQVSLTCLVKGFYPSDIAVEWESNGQPENNYKTTPPVLDSDGSFFLYSKLTVDKSRWQQGNVFSCSVMHEALHNHYTQKSLSLSPGK
notes: Monospecific, bivalent scFv-Fc, VL-VH; Contains germlining set G11
For B2, in assay [1], the Kd is 40 nM, the koff amounted to 0.00018 s⁻¹ and the association rate constant (kon) came to 4500 M⁻¹ s⁻¹. Moreover, a half-maximal response in assay [2] (EC50) required 5 nM. Further, the EC50 in assay [3] was determined as 1 nM.

B3: PSMA01024 Anti-PSMA scFv-Fc (Fc fusion)
chain: B2 chain with I2V, M4I, Y177I, R186S
notes: as for B1
As to B3, in assay [1], the dissociation constant Kd turned out to be 299 nM, the koff stood at 0.0026 s⁻¹ and the on-rate constant (kon) worked out at 8500 M⁻¹ s⁻¹. This molecule came in with an EC50 in assay [2] of 9 nM. The same molecule displayed a half-maximal effective concentration (EC50) in assay [3] of 12 nM.

B4: PSMA01021 Anti-PSMA scFv-Fc (Fc fusion)
chain: B2 chain with I2V, M4I, T203I, V206A, E216D
notes: as for B1
Regarding B4, in assay [1], the equilibrium dissociation constant (Kd) was 18 nM, the dissociation rate constant (koff) was found to be 0.00017 s⁻¹ and the kon is 9400 M⁻¹ s⁻¹. Further, the 50% effective concentration (EC50) in assay [2] amounted to 6 nM. In assay [3], the midpoint of the response, the EC50, lay at 2 nM.

B5: PSMA01025 Anti-PSMA scFv-Fc (Fc fusion)
chain: B2 chain with Y177I, R186S
notes: as for B1
On to B5, for which, in assay [1], the Kd turned out to be 271 nM, the koff amounted to 0.011 s⁻¹ and the kon was 40000 M⁻¹ s⁻¹. The molecule further displayed a concentration for a half-maximal effect (EC50) in assay [2] of 10 nM. The molecule also gave a concentration giving a half-maximal response (EC50) in assay [3] of 11 nM.

B6: PSMA01012 Anti-PSMA scFv-Fc (Fc fusion)
chain: DIQMTQSPSAMSASVGDRVTITCRASKSISKYLAWFQQKPGKVPKLRIHSGSTLQSGVPSRFSGSGSGTEFTLTISSLQPEDFATYYCQQHIEYPWTFGQGTKVEIKRGGGGSGGGGSGGGGSQVQLVQSGAEVKKPGASVKVSCKASGYTFTDYYMHWVRQAPGQGLEWMGYFNPYNDYTRYAQKFQGRVTMTRDTSISTAYMELSSLRSDDTAVYYCARSDGYYDAMDYWGQGTTVTVSSSEPKSSDKTHTCPPCPAPEAAGAPSVFLFPPKPKDTLMISRTPEVTCVVVDVSHEDPEVKFNWYVDGVEVHNAKTKPREEQYNSTYRVVSVLTVLHQDWLNGKEYKCAVSNKALPAPIEKTISKAKGQPREPQVYTLPPSRDELTKNQVSLTCLVKGFYPSDIAVEWESNGQPENNYKTTPPVLDSDGSFFLYSKLTVDKSRWQQGNVFSCSVMHEALHNHYTQKSLSLSPGK
notes: Monospecific, bivalent scFv-Fc, scFv in VL-VH orientation; also called parent construct
For the molecule B6, in assay [1], the dissociation constant Kd stood at 40 nM, the koff was 0.0011 s⁻¹ and the kon worked out at 27000 M⁻¹ s⁻¹. Also, it took 8 nM to reach a half-maximal effect in assay [2] (EC50). The concentration giving a half-maximal response (EC50) in assay [3] amounted to 6 nM.
